The values below come from PMC2877007.

The assay concerns the target Epidermal Growth Factor Receptor (EGFR) (human (endogenous in A431)) (UniProt P00533). The assay is described as follows: parameter fitting of an ODE model (PottersWheel) and a stochastic simulation (SPS) to immunogold electron microscopy counts; estimated constants; adaptor immunogold label on plasma membrane sheets of A431 cells over a time course of EGF, 20 nM EGF in the model; docking rate multiplied by a scaling factor f and adjusted to match the data.

In general, Kd refers to the concentration at which binding is half-saturated. As usually defined, the koff is a measure of how fast the partners let go of each other. As a reminder, the kon is the second-order rate constant of association. For the substance “Stat5 (from UniProt P42229 1-794) (natural protein)”, the Kd was 2130 nM, the koff was 11.7 s⁻¹ and the kon was 5.5e+06 M⁻¹ s⁻¹.
